Data on one molecule can be found in paper PMC5722641 (Developmental Cell, 2017).

This test has as its target purified Drosophila E2F1 (in vitro binding assay) (Drosophila, UniProt Q27368 1-805). The test can be described thus: in vitro binding assay.

Chain of purified Drosophila E2F1 (in vitro binding assay) (Q27368 whole entry): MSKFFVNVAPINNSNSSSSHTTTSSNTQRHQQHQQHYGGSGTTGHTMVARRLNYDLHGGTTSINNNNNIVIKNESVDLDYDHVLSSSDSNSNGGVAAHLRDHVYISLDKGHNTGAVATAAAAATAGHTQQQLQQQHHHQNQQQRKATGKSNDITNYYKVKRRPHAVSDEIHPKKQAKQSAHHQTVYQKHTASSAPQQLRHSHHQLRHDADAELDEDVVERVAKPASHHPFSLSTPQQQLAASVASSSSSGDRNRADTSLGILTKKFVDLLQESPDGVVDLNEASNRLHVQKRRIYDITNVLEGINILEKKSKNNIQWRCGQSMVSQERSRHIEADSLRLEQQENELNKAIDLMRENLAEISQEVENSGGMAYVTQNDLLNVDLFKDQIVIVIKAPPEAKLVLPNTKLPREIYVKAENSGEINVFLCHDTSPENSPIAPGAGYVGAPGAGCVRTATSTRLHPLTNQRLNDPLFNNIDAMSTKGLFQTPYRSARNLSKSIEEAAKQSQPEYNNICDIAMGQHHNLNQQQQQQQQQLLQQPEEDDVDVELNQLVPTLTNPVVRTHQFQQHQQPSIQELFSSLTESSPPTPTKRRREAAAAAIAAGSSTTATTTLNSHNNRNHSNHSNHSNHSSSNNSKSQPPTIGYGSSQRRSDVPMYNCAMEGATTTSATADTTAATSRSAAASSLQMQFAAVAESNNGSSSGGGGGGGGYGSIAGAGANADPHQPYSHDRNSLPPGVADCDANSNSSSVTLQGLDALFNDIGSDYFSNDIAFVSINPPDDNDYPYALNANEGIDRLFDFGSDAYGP

B1: purified Drosophila Sd (in vitro binding assay) (natural protein)
chain: MKNITSSSTCSTGLLQLQNNLSCSELEVAEKTEQQAVGPGTIPSPWTPVNAGPPGALGSADTNGSMVDSKNLDVGDMSDDEKDLSSADAEGVWSPDIEQSFQEALSIYPPCGRRKIILSDEGKMYGRNELIARYIKLRTGKTRTRKQVSSHIQVLARRKLREIQAKIKVQFWQPGLQPSTSQDFYDYSIKPFPQPPYPAGKTSTAVSGDETGIPPSQLPWEGRAIATHKFRLLEFTAFMEIQRDEIYHRHLFVQLGGKPSFSDPLLETVDIRQIFDKFPEKSGGLKDLYEKGPQNAFYLVKCWADLNTDLTTGSETGDFYGVTSQYESNENVVLVCSTIVCSFGKQVVEKVESEYSRLENNRYVYRIQRSPMCEYMINFIQKLKNLPERYMMNSVLENFTILQVMRARETQETLLCIAYVFEVAAQNSGTTHHIYRLIKE
As for B1, the binding result is recorded as “binds”.
